From the supplement of paper PMC9170038 come the findings set out here.

In this data set the test system is MS2 coat protein. Nature of the data set: apparent KD of MS2 coat protein; higher = weaker reporter binding. As to conditions: Eterna round: R107. Put shortly: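 With or without constant ligand, designed RNA switches in 100 mM Tris-HCl pH 7.5, 80 mM KCl and 4 mM MgCl2 were titrated with SNAP-549-labelled MS2 coat protein. Concentrations went up in twofold steps from 0.7 or 1.5 nM to 3 µM. The switches had been transcribed on-chip from Illumina sequencing clusters, and apparent KD is the per-design median of normalised cluster binding-curve fits.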

Where [1] appears, read: input ligand: theophylline 20 uM.
Setting [2] is: input ligand: theophylline 2 mM.
Where [3] appears, read: input ligand: tryptophan 2.4 mM.

In the case of “GGAGUAGGAAACUAUUCCAAUCCUCGUGAACGAGGACCGGUACGGCCGCCACUCGAUAAUUAAUAACAUGAGGAUCACCCAUGUA [Ex Tryptophan A 21]”, the “apparent KD of MS2 coat protein” value amounted to 36.6 nM (input ligand: arginine 13.2 mM), 80.4 nM under setting [1] and 89 nM under setting [2].
For the sequence “GGAUAGGACACGGCCGCCACUAGCUAGGAUACUAGCAACAUUUCCUCACAAGAGGAUCACCCUUGUAGGACCGGGUGUCCUAUCG”, the “apparent KD of MS2 coat protein” value by setting is: (input ligand: arginine 13.2 mM) 84.9 nM; (input ligand: none) 93.7 nM; under setting [1], 115 nM; under setting [2], 118 nM; under setting [3], 139 nM.
As for “GGAUAGGACACGGCCGCCACUAGCUAGGAUACUAGCAACAUUUGGGUACAUGAGGAUCACCCAUGUAGGACCGGGUGUCCUAUCG”, the “apparent KD of MS2 coat protein” value reads like this: (input ligand: arginine 13.2 mM) 64.4 nM; (input ligand: none) 63.7 nM; under setting [1], 117 nM; under setting [2], 85.5 nM; under setting [3], 107 nM.
In the case of “GGAUCAGGAUCGGCCGCCACUGAUAGUGAUCCAACGACAUGAGGAUCACCCAUGUACAUUUUAAUCAGGACCGGGAUCAAGUUCC [Tryp B Ex t7]”, the “apparent KD of MS2 coat protein” value stood at 40 nM (input ligand: arginine 13.2 mM), 189 nM under setting [1] and 327 nM under setting [2].
On to “GGAUUACGAAAGUAGUCCUCAAGUUCGAGACGAGGACCGGUACGGCCGCCACUCGAACAUGAGGAUCACCCAUGUAGCGAAAGCU [Tryptophan A 22]”, for which the “apparent KD of MS2 coat protein” value stood at 86.6 nM (input ligand: arginine 13.2 mM); 195 nM (input ligand: none); 382 nM under setting [1]; 425 nM under setting [2]; 181 nM under setting [3].
The matching figures for “GGCACAUAGUCGGCCGCCACUAGAAUAUAGUGGAAUAACAUGAGGAUCACCCAUGUAUUUGGGACUAGGACCGGGACUAUGUGCC [Bear]”: 33.2 nM, 33.7 nM, 41.9 nM, 42.2 nM and 20.2 nM.
On to “GGCACAUAGUCGGCCGCCACUAGUGGGAAAUGGGAGAACAUGAGGAUCACCCAUGUAUUAUAGCCUAGGACCGGGACUAUGUGCC [Mammoth]”, for which the “apparent KD of MS2 coat protein” value by setting is: (input ligand: arginine 13.2 mM) 145 nM; under setting [1], 196 nM; under setting [2], 259 nM.
On to “GGCCCACAUGAGGAUCACCCAUGUGUGGAUACCAGCCUCAUUUAGGGCCCUUGGCAGCCAGAUAGUAACAAGUCCGAAACACAGA [theeternabot_sameState_MS2_Theo_A_24]”, for which the “apparent KD of MS2 coat protein” value (input ligand: arginine 13.2 mM) was 26.2 nM, the “apparent KD of MS2 coat protein” value under setting [1] is 203 nM and the “apparent KD of MS2 coat protein” value under setting [3] is 144 nM.
The matching figures for “GGCCGGUGCGCUUUGAAGCGACGGCGUGAUACCAGAUGUAAGAGCGUCCCUUGGCAGCACGUUUACAUGAGGAUCACCCAUGUCU [Zaveusxe]”: 53.2 nM, 256 nM and 220 nM.
As for “GGGUAAGAUCCGGAUACCAGCGAACAUGAGGAUCACCCAUGUGACCUAAGAUAGGCUAAACGCCCUUGGCAGCCGAAAUAGCGUU [Same State Theophylline B GF 5]”, the “apparent KD of MS2 coat protein” value is 24.9 nM (input ligand: arginine 13.2 mM); 36.4 nM (input ligand: none); 43 nM under setting [1]; 38.2 nM under setting [2]; 39.5 nM under setting [3].
With “GGGUACAUCGCGGCCGCCACUCAUGUAAAUGCAUGAGGAUCACCCAUGUCGAUGGAGACAUCGGAGAGGACCGGGUGAUGUACCG”, the “apparent KD of MS2 coat protein” value (input ligand: arginine 13.2 mM) is 108 nM; the “apparent KD of MS2 coat protein” value (input ligand: none) came out at 259 nM; the “apparent KD of MS2 coat protein” value under setting [1] is 268 nM; the “apparent KD of MS2 coat protein” value under setting [2] came out at 313 nM; the “apparent KD of MS2 coat protein” value under setting [3] turned out to be 193 nM.
The matching figures for “GGGUACAUCGCGGCCGCCACUCGUGUAAAUACAUGAGGAUCACCCAUGUCGAUGGAGACAUCGGCGAGGACCGGGUGAUGUACCG”: 43.1 nM, 47.5 nM, 54.2 nM, 53.5 nM and 11.5 nM.
Consider “GGUAACUCUACGGCCGCCACUGAACAUGAGGAUCACCCAUGUAAUGUUCAGAUUUUUUUUUUUUACAGGACCGGGUAGUGUUACC [Tryptophan B 4]”, for which the “apparent KD of MS2 coat protein” value stood at 107 nM (input ligand: arginine 13.2 mM), 276 nM under setting [1] and 275 nM under setting [2].
The matching figures for “GGUACAUGAGGAUCACCCAUGUAUUAGUGCCGAGGACCGGUACGGCCGCCACUCGCUUCACAUGAGGAUCACCCAUGUGUCACUG [SSTA DOUBLE!!! :-D #14]”: 23.6 nM, 35.9 nM and 36.1 nM.
Regarding “GGUAUGUAUUCGGAAACGAAUGCAUACCAACGAGGACCGGUACGGCCGCCACUCGCCGUCCUCAAACAUGAGGAUCACCCAUGUA [Ex Tryptophan A 7]”, the “apparent KD of MS2 coat protein” value by setting is: (input ligand: arginine 13.2 mM) 19.5 nM; under setting [1], 30.5 nM; under setting [2], 30.6 nM.
The matching figures for “GGUAUGUAUUCGGAAACGAAUGCAUACCAACGAGGACCGGUACGGCCGCCACUCGGGCCGUGAUCACAUGAGGAUCACCCAUGUA [Ex Tryptophan A 5]”: 29.8 nM, 49.2 nM and 42.3 nM.
In the case of “GGUCCCGUCGGAAGGAGCGACAUGAGGAUCACCCAUGUCUCCCGUUAUGGGAGUUCUUUAGGUCAGGUAGGUCGCCGGCGGGAGC [#1 Exclusion - Arginine B Attempt #15 (Inspired by Omei)]”, the “apparent KD of MS2 coat protein” value (input ligand: arginine 13.2 mM) stood at 52.4 nM; the “apparent KD of MS2 coat protein” value (input ligand: none) turned out to be 94.5 nM; the “apparent KD of MS2 coat protein” value under setting [1] came out at 123 nM; the “apparent KD of MS2 coat protein” value under setting [2] turned out to be 141 nM; the “apparent KD of MS2 coat protein” value under setting [3] amounted to 74 nM.
